For test [1], the target named is GST-LE, dual phosphorylated (CK2 plus Syk, 2 added phosphates) (encephalomyocarditis virus (EMCV)). Nature of the test: SEC. A general note: SEC sorts molecules by how far they enter the pores of the column.
Test [2] has the same target. Description: pull-down.
The target in test [3] is GST-LE, singly phosphorylated (reacted with CK2, 1 added phosphate) (encephalomyocarditis virus (EMCV)). Description: pull-down.

1 substance from PMC4679524 can be followed below.

Chain of GST-LE, dual phosphorylated (CK2 plus Syk, 2 added phosphates) (encephalomyocarditis virus (EMCV)) (P03304 1-67 limits assumed): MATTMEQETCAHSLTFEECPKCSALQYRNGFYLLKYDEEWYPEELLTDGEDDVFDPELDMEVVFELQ
Chain of GST-LE, singly phosphorylated (reacted with CK2, 1 added phosphate) (encephalomyocarditis virus (EMCV)) (P03304 1-67 limits assumed): as above

As a reminder, the stoichiometry N is the number of molecules, sites or subunits per partner or assembly. As to “rCrm1 (recombinant His-tagged murine Crm1) (from UniProt Q6P5F9 1-1071) (natural protein)”, the stoichiometry N in test [1] stood at 1. In addition, the percent stronger rCrm1 signal per unit of GST(-LE) than without phosphate in test [2] and in test [3] was 50 to 70% each time.
